Test [1] has as its target GPCMV gB (glycoprotein B of guinea pig CMV strain V545/82) (guinea pig cytomegalovirus). Put plainly: cell-based or functional assay.
The target of test [2] is CMV gp116 epitope AD2 site peptide … (CMV (human cytomegalovirus)). Put plainly: kinetic affinity measurement, method not stated; antigen taken as CMV gp116 AD2 peptide.
Test [3] has the same target. Put plainly: kinetic affinity measurement, method not stated; antigen taken as AD2 peptide; same value as r7, table re-sorted by koff.

These results are taken from patent publication US20150152166A1.

On to ITC88 control antibody, for which, in test [1], the neutralization of GPCMV V545/82 entry into JH4 cells; highest concentration tested without effect was greater than 300 ng/mL. In addition, in test [2], the equilibrium dissociation constant (Kd) (in general, the equilibrium constant for the complex coming apart) was 1.51 nM; the koff (commonly a measure of how fast the partners let go of each other) came to 0.00116 s⁻¹; the kon (usually the second-order rate constant of association) was 767000 M⁻¹ s⁻¹. Also, in test [3], the dissociation constant (Kd) was found to be 1.51 nM, the koff was 0.00116 s⁻¹ and the association rate constant (kon) was found to be 767000 M⁻¹ s⁻¹.
